The values below come from article PMC3753634.

In one series the target is T1, LtrC (phage phi55 ORF34) (Staphylococcus aureus phage phi55, UniProt Q4ZB49 1-133).
T1 sequence: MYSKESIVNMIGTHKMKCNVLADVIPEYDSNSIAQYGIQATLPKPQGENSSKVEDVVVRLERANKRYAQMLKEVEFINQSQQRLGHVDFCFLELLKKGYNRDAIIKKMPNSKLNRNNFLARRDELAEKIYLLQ
As to the kind of experiment: EMSA. In general terms: A gel shift assay detects complexes by their altered migration in electrophoresis.

In series [1] the target is T2, ArpU (phage phiFL2A late transcriptional regulator) (Enterococcus faecalis phage phiFL2A, UniProt D2IZF3 1-155).
T2 sequence: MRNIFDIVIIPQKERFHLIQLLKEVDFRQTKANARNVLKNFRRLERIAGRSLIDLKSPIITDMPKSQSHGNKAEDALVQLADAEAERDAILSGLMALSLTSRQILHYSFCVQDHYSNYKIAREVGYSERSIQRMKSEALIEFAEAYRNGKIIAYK
As to the kind of experiment: EMSA.

B1: LtrC wt probe (phi55 repeat region, ORF34wt) (dsDNA)
DNA 1: TTGGCAGAAAAGATTTATCTACTACAGTGACGAAAATGACAAAATGACAGAAATGACGAAAATGACACTATTTTTAAACTGTGAATTAATTTTATATA
DNA 2: TATATAAAATTAATTCACAGTTTAAAAATAGTGTCATTTTCGTCATTTCTGTCATTTTGTCATTTTCGTCACTGTAGTAGATAAATCTTTTCTGCCAA
In the case of B1, the binding result in the series with LtrC (phage phi55 ORF34) is on record as “binds”.

B2: ArpU wt probe (phiFL2A repeat region) (dsDNA)
DNA 1: TAATTTTGGCGGTTTTTGGCGGAAAGTTGGCGGTTTTATACGAATTTGAGTGCTAATATAGTAATATCGAAAG
DNA 2: CTTTCGATATTACTATATTAGCACTCAAATTCGTATAAAAACCGCCAACTTTCCGCCAAAAAACCGCAAAATTA
B2: the binding result in series [1] was “binds”.
